Assays:
[1] = target: the molecule itself; experiment: SEC
[2] = target: T1, IFIT1 wild-type (human, UniProt P09914 1-478); experiment: X-ray crystallography
T1 sequence: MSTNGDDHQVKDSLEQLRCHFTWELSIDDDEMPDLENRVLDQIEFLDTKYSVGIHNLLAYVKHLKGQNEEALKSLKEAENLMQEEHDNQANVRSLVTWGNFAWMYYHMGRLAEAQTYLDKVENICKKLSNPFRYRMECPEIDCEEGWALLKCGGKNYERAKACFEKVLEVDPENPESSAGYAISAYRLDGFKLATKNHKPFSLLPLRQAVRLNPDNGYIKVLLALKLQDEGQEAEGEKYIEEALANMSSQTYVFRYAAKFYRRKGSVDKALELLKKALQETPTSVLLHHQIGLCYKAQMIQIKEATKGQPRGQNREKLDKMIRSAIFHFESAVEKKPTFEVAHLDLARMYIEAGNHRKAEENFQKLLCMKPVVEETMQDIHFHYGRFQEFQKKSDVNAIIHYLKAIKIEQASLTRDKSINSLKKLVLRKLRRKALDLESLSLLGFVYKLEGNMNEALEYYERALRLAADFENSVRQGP

[3] = target: T1, IFIT1 wild-type; experiment: limited proteolysis
[4] = target: T1, IFIT1 wild-type; experiment: X-ray crystallography; remark: listed apart in the source
[5] = target: the molecule itself; experiment: SEC-MALS

B1: IFIT5-IFIT1 chimera (IFIT5^i1TPR9): human IFIT5 α1-α21 (residues 1-435) and human IFIT1 α22-α23 (TPR9, residues 437-478) (other, UniProt Q13325 1-435, looked up)
chain: MSEIRKDTLKAILLELECHFTWNLLKEDIDLFEVEDTIGQQLEFLTTKSRLALYNLLAYVKHLKGQNKDALECLEQAEEIIQQEHSDKEEVRSLVTWGNYAWVYYHMDQLEEAQKYTGKIGNVCKKLSSPSNYKLECPETDCEKGWALLKFGGKYYQKAKAAFEKALEVEPDNPEFNIGYAITVYRLDDSDREGSVKSFSLGPLRKAVTLNPDNSYIKVFLALKLQDVHAEAEGEKYIEEILDQISSQPYVLRYAAKFYRRKNSWNKALELLKKALEVTPTSSFLHHQMGLCYRAQMIQIKKATHNRPKGKDKLKVDELISSAIFHFKAAMERDSMFAFAYTDLANMYAEGGQYSNAEDIFRKALRLENITDDHKHQIHYHYGRFQEFHRKSENTAIHHYLEALKVKDRSPLRTKLTSALKKLSTKRLCHNALDVLESLSLLGFVYKLEGNMNEALEYYERALRLAADFENSVRQGP
With B1 the “stoichiometry N” value [1] was 2.

B2: IFIT2 (natural protein, UniProt P09913 1-472, looked up)
chain: MSENNKNSLESSLRQLKCHFTWNLMEGENSLDDFEDKVFYRTEFQNREFKATMCNLLAYLKHLKGQNEAALECLRKAEELIQQEHADQAEIRSLVTWGNYAWVYYHMGRLSDVQIYVDKVKHVCEKFSSPYRIESPELDCEEGWTRLKCGGNQNERAKVCFEKALEKKPKNPEFTSGLAIASYRLDNWPPSQNAIDPLRQAIRLNPDNQYLKVLLALKLHKMREEGEEEGEGEKLVEEALEKAPGVTDVLRSAAKFYRRKDEPDKAIELLKKALEYIPNNAYLHCQIGCCYRAKVFQVMNLRENGMYGKRKLLELIGHAVAHLKKADEANDNLFRVCSILASLHALADQYEDAEYYFQKEFSKELTPVAKQLLHLRYGNFQLYQMKCEDKAIHHFIEGVKINQKSREKEKMKDKLQKIAKMRLSKNGADSEALHVLAFLQELNEKMQQADEDSERGLESGSLIPSASSWNGE
With B2 the “stoichiometry N” value [1] was 2.

AAAA (ssRNA, 5' triphosphate) [PPP-oligoA (PPP-AAAA)]: binds [2].

AAAA (ssRNA, 5' Gppp cap (cap G not in strand)) [Gppp-oligoA (Gppp-AAAA)]: binds [3].

AAAA (ssRNA, 5' m7Gppp cap (cap G not in strand)) [m7Gppp-oligoA (m7Gppp-AAAA)]: binds [4].

B3: human IFIT1, wild-type, full-length (residues 1-478) (natural protein, UniProt P09914 1-478, looked up)
chain: MSTNGDDHQVKDSLEQLRCHFTWELSIDDDEMPDLENRVLDQIEFLDTKYSVGIHNLLAYVKHLKGQNEEALKSLKEAENLMQEEHDNQANVRSLVTWGNFAWMYYHMGRLAEAQTYLDKVENICKKLSNPFRYRMECPEIDCEEGWALLKCGGKNYERAKACFEKVLEVDPENPESSAGYAISAYRLDGFKLATKNHKPFSLLPLRQAVRLNPDNGYIKVLLALKLQDEGQEAEGEKYIEEALANMSSQTYVFRYAAKFYRRKGSVDKALELLKKALQETPTSVLLHHQIGLCYKAQMIQIKEATKGQPRGQNREKLDKMIRSAIFHFESAVEKKPTFEVAHLDLARMYIEAGNHRKAEENFQKLLCMKPVVEETMQDIHFHYGRFQEFQKKSDVNAIIHYLKAIKIEQASLTRDKSINSLKKLVLRKLRRKALDLESLSLLGFVYKLEGNMNEALEYYERALRLAADFENSVRQGP
For B3, the “stoichiometry N” value [5] was 2.

B4: human IFIT1 K448E (natural protein, UniProt P09914 1-478, looked up)
chain: MSTNGDDHQVKDSLEQLRCHFTWELSIDDDEMPDLENRVLDQIEFLDTKYSVGIHNLLAYVKHLKGQNEEALKSLKEAENLMQEEHDNQANVRSLVTWGNFAWMYYHMGRLAEAQTYLDKVENICKKLSNPFRYRMECPEIDCEEGWALLKCGGKNYERAKACFEKVLEVDPENPESSAGYAISAYRLDGFKLATKNHKPFSLLPLRQAVRLNPDNGYIKVLLALKLQDEGQEAEGEKYIEEALANMSSQTYVFRYAAKFYRRKGSVDKALELLKKALQETPTSVLLHHQIGLCYKAQMIQIKEATKGQPRGQNREKLDKMIRSAIFHFESAVEKKPTFEVAHLDLARMYIEAGNHRKAEENFQKLLCMKPVVEETMQDIHFHYGRFQEFQKKSDVNAIIHYLKAIKIEQASLTRDKSINSLKKLVLRKLRRKALDLESLSLLGFVYELEGNMNEALEYYERALRLAADFENSVRQGP
B4: binds [1].

From paper doi:10.1101/152850 (bioRxiv, 2017)
